{
  "source": "patent US5792457A",
  "about": "“Antibody recognizing endothelial cell ligand for leukocyte CR3” (priority 1995, dated 1998)",
  "molecules": {"B1": {"name": "CRD protein: expressed polypeptide of FHA carbohydrate recognition domain, residues 1141-1279, 18kD (protein, UniProt P12255 1141-1279, looked up, fragment)", "chain": "LEHSTIESKISQSVLAAKGDKGKPAVSVKVAKKLFLNGTLRAVNDNNETMSGRQIDVVDGRPQITDAVTGEARKDESVVSDAALVADGGPIVVEAGELVSHAGGIGNGRNKENGASVTVRTTGNLVNKGYISAGKQGVL"}},
  "experiment": "Overlay on thin-layer chromatography plates containing glycolipids",
  "format": "binding",
  "description": "2) The DNA sequence from nucleotide position 3674 to 4088 (bounded by XhoI sites) which corresponds to the CRD was amplified by the polymerase chain reaction and ligated into one of the pET expression vectors (Rosenberg et al. (1987), Gene 56, 125-135). Expression of the polypeptide in E. coli utilized the T7 RNA polymerase promoter system (Tabor, S. & Richardson, C.C. (1985), Proc. Natl. Acad. Sci. U.S.A. 82). [^35 S] […] Cell lysates containing the expressed protein were overlaid on thin-layer chromatography plates containing glycolipid standards and the binding pattern was compared to that of FHA.",
  "data": [
    {"molecule": "B1", "values": [
      {"measurement": "binding to lactosylceramides (in words)", "value": "bound to these carbohydrates in a pattern similar to FHA, especially in the ability to bind to lactosylceramides"}
    ]}
  ]
}
